The data set is described as follows: label from the status in PepcDB records.
“MRWLNRHKFLPFLAWLPQQSRASVGRDALVGLSGAILALPQSIAYALIAGLPPEYGLYAAIVPVLIACLWGSSWHLICGPTAAISIVLYVSVSPLAVPASQDYIMLILLLTFIAGVFQLLLGMMRFGALVNFVSHSVVLGFTLGAAVVIALGQMPNLLGIDLPSQTTALKSLSAVLEHRGELDKPSLMLGLLTLTLGIGLKAWVPRWPTLLIALVSSSLLVWLWPAMFGHVRVVSAFVGHLPPFSPLPLDLELILKLLPTAVAVGMLGLVNSLSIARSLSARSQQMLNANQEVRAQGLSNMVGSLFSGYLSAGSFTRAALSYEAGARSPLAGVFSALWVALFAVAGASLVSHIPIPAMAASILLICWGLVDRRGIRALLRVSRAEFFVMALTCLATLLLELQTAIYAGVLASLFFYLKRTSQPRVQQWREGDEDVLRVGGSIFFGASHYLQTRLQRTEGLRVVIDAQQINFIDYSGVEMLHQEARRLGQQGRVLVLRNARPLVIEELHKLEGPENCPILFED”: the protein production result is “failed”.

Consider “MGLFLEDLAVGDRFDSARHRVEAAAIKAFAGEFDPQPFHLDEEAARHSLFGGLAASGWHTAAITMRLLVTSGLPLAQGIIGAGTELSWPNPTRPGDELHVETTVLAITPSKSRPDRAIVTCQSDTLNQRGEVVQRSTAKVVVFRRPLEHHHHHH”, for which the protein production result is on record as “not failed”.

On to “MSEMLYILQTVLLPIFIMIFLGYILQKKFTLDLNTLAKLNIYVFVPGFIFVKFYKTHFALSLLFYIIIFFVIYMFVLFLIGKLLSMFRKTDKGETTTLTNSLMFFNSGNYGVPVNDLVFKGDPLAMSVQVIVLSLQNIFTFSYGVFAIQSLHIGKLKALLGYFKMPVLYALLLAIILNYNHIPIPEFIWTPANYVADAMIAIALLMLGAQISNIKFSLKWSKSYAYVFIRLIIGPLIALVIIKIMGIEGIIAQTLFIASAMPTSVNSSVIAQEYDNHPELAAELVFLSTLLSAITVVIVIYMSKILF”, for which the protein production entry is “failed”.

As to “MDKEQRNIVVFNASKRELFTSSSGYKSLQKKLRAQWKIQSIKEELTLEKLQGVKLWITAGPREKFTAAELEVLKQYLDSGGALLVMIGEGGELKYDTNINFLLEEFGIMVNNDAVIRNVYYKYFHPKEALVSNGVLNREISRAAGKVVTGVIDEENTGNNSQALTFVYPYGATLNVMKPAVAILSTGSVCFPLNRPVLAFHHSKNAGKLAVLGSCHMFSDQYLDKEENSRIMDVVFQWLTTDSIHLNQIDAEDPEITDYMMLPDTGSLSERLRVCLQEGDENPRDFTSLFDMSLLKLHTNTLPSVLDAYKQLNVKHEALQLITPQFETPLPPLQPAVFQPAFRDLPPPMLDLFDLDETFSSEKVRLAQLSNKCTDDDLEFYVRKCGDILGVTGNLDKDKRDAKHILEHVFFQVVEFKKLNEEHDVDTAEARFSMY”, the protein production entry is listed as “not failed”.

In the case of “MSLNRFTKTSQGRSWNTGNGSPDAICFAVDKPGIVVVGFAVYGGGGIHEYELEVLVDDSEHAGDSTHSHRWTSLELVKGTYTTDDSPSDIAEIRLDKVVPLKENVKYAVRLRNYGSRTANGDGGMTTVQCPDGVTFTFSTCSLSSNGTNQTRGQIPQILYYRSEEGHHHHHH”, the protein production result is on record as “not failed”.

As to “MMLITERRSPFYPNIQNVPPSVIRKLVKNKAITLIDVRQPWEYEDHHIPGSILLPLDYFKELFPLVLSKNNLVKNGVAIICEHANRSTWLVYTEPSLFKEVKVYNMLGGIELWMIMGYEIEKGMDDNGTLWYKLLTKNLGLEHHHHHH”, the protein production entry is recorded as “failed”.

With “MTLSPNLRGALWMLASAVGFTVMTTLIKFLGDDYPAALQTFYRQLAGVLVLLPLIARDWRGAFRTTRPGIVIFRSSAGVLALIMSFYAYQKLPLADANALSFTRTLWLVPLAGLVLREPIGPRRISAALVGFVGVLIMLQPGAGGVEAWLGWPQLCALGAAFLFALTITGMKVMTRDHTPFVLLVYAAVLGLVFAIPPALFVWRWPTWPDLGLLAAMGVIGTLTQGAYIKGMEAGEAAVMAPVDYTRLVFAVIVGFLLFQEVPRTATVVGAVIVVGSTLFISWREHQLAKQAAAEPT”, the protein production entry was “failed”.

As to “MFIGRNQELTALNKLYQEDSFQFAVIYGRRRIGKTSLINQFLKGKRAIYFTGLEENALENLARFSDAIHAYEDPSYLDGPNFASFEQAFKYLVHLSEKNDRLILVIDEFPYLAKAYPPISSMLQSYIDHYFKQNKLFLILCGSSMPFMEKQVLGYKSPLYGRRTAQFKLKPFSLHDAEEFFPQLNKEEVFELNAITGGIPLYLSLMSPKKSLRENIKDNFLTTSAMLYAEPMSLLNQELREPASYSSIISAIAAGASRQSEISTKTGIASGALSPYLDNLIDLGIVEKRLPVTELDKARSRKTIYAIKDGMFRFWYTFVGKRVSFIERGITEPILDYIIKQLPHFMGPEFEKLSQEYLWSKLFDPDLVPEPFVNLGNWWGPDPKEKKQVEMDIVGFDDQKLNGYFGECKWKNEPISADILETLIYRSILFPTPKKNYYLFSKTGFTDKCQQLAQQVDCHLITFDMM”, the protein production entry is on record as “failed”.

Consider “IVMADWLKIRGTLKSWTKLWCVLKPGVLLIYKTQKNGQWVGTVLLNACEIIERPSKKDGFCFKLFHPLEQSIWAVKGPKGEAVGSITQPLPSSYLIIRATSESDGRCWMDALELALK”, for which the protein production entry was “not failed”.

With “IEGLFIFDRNQKCVYANHIALNLFGYTLEEVHSKSILDFIALGFRNKVKRFSQNRDQPPYEVLGIKNDGSLFPIMIRGKAIELG”, the protein production entry is “failed”.

For “MSVNMDELRHQVMINQFVLAAGCAADQAKQLLQAAHWQFETALSTFFQETNIPNSHHHH”, the protein production result is recorded as “not failed”.

“MKFSYKFSNLLGTIYRNGNLVFTPDGNSVISPVGNRITVYDLKNNKSRTLSLESRYNYTNIALSPDGSLLIAVNEKGEAQLISMMSCTVIHRHKFQTGVQCICFSPNGAFFAVAVQNVVLIFCAPGEITGEYNPFVLRRRFLGGFDDVTWLDWSSDSRLLAIGCRDSSTKIVAINYTKNFRTYNLSGHTDAIVACFFEANSLHLNTISRNGQLCLWECSLAPSDLEDAERPKIAPPQRKKEKKAVSDNESEDDVENVVEKDALKEESTKEAEDVNHIKNEDETKSHPFFYKKITRHYLADEPRKEQRDVQLTAANYNTRTKVLVVAFSSGAFYLYELPDVNMIHSLSISDYPISAALFNCTGDWVALASREIGQLLVWEWQSEQYIMKQQGHSSEMTCIAYSSDGQFIATGGEDSKVKLWNTQSSFCFVTFSEHTSGVTGIQFSRNKKFLVSSSLDGTVRAFDVNRYRNFRTFTSPNPAQFSCVAVDYSGELVVAGGQDVFDIFLWSVKTGKLLEIISGHEGPVVSIAFSPVATSSTLVSGSWDKTVKIWNCLESNSEHETIDAVSDVTNVTFSPSGEEIAVATLSGNITIFDIKSAGQVTTIEGRNDLSAGRLETDIITARKNAQANYFSTIEYSADGECILAAGKSANICIYHVREAILLKKFEITQNHSLDGLNDFISRKHLSEFGNMALVEEREELEGGRVAIRLPGVQRGDMSSRRFQQEVRVFSVKFSPTGQAFAAAGTEGLCIYALDKGVVFDPFDLSLEVTPKAVHESLKQQNYTKALVMSLKLNEPNLIALVLERVPYKDVELVCADLSPEFAQRLLQQLARQLQSTPHIEFYLQWSCCLLTKHGNQDGVFQHTGLLALHEVLSRKYEMLNKICDYNKYTLKVLLDRADKLEQKNEGKPNATEEDSDEEMLLIRSKDDENGQAQFSDEEESDSGSEEEMA”: the protein production entry is “failed”.

“MNAIISPDYYYVLTVAGQSNAMAYGEGLPLPDREDAPHPRIKQLARFAHTHPGGPSCHFNDIIPLTHCPHDVQDMQSYHHPLATNHQTQYGTVGQALHIARKLLPFIPDNAGILIVPCCRGGSAFTAGSEGTYSERHGASHDACRWGTDTPLYQDLVSRTRAALVKNPQNKFLGVCWMQGEFDLMTSDYASHPQHFNHMVEAFRRDLKQYHSQLNNITDAPWFCGDTTWYWKENFPHAYEAIYGNYQNNILANIIFVDFQQQGARGLTNAPDEDPDDLSTGYYGSAYRSPENWTTAXRSSHFSSAARRGIISDRFVEAILQFWRER”: the protein production result is given as “not failed”.

For the sequence “LPLTDALRKALAEAPKHTANIARKRHILFIGKLMRDQDQEAILVLLDQLDASTRQYNERFHNLERWRDRLIAGDDADLEKFVIEYPDADRQQLRSLIRQAQHEVARNKP”, the protein production entry was “failed”.

For “MGFDFGTVLVFAVVAVGFALGGIAASRALGPKWPNPEKASIYECGERPVGVAWFNFNPRFYLVALVFLVFEVDIALTFPVVAVFKGWVAQGPGMAWVAFFELLVFTGILVVGLAWAWAHGDLEWIKTLGAPSEEAPARAEPRRAA”, the protein production result is on record as “failed”.

Take “MVIRRLYQFCASHVVRNCSSLKCAQNIHGHNYEVEVFIETNRLDNANMALDFGLMQQEMQVFIESFDHAHHFWDKESLEFQRFIENHCVRYVKCSFNLSAESYALMFLYYLTKILQKSVFSNDEGELKVSSVRVHETKNGYAESFLKDLENPHFKSLVHDHCVSFSQGIQNLWHDKDFFNKIISDEKQCFFHAKPLHQIP”: the protein production entry is on record as “failed”.

On to “MEWFDKISEFMEGLPEWLQAHPRYGYLIVAGILLLWLVGIVCGWRWTYSRPGSWEGNFWLGTLGERSYRFWLGLIVAAATGCALLLFSVTG”, for which the protein production result was “failed”.

For “MEITPKRYWRRWRGYEKLDGSSETTSGRRKGKRVKMDPTRKKRFWRIKIVPKLRILKTASPKKFLVWLRDSYVKMMMRLANSRVVGSSGYGGSGFGSGQMKEYDEKMLVEIYKSILMVQAQGNLVHRDTPNNNLKLPSEPAVVSVVSSVVTC”, the protein production entry was “failed”.

For “VADTDGHYRVRAITEISSFNETLGATFSDKEFDTIGGLVINKFGRLPKNGESITIEGFNFTVTRADSRRLHLLKVERIEPGVVEDADSHDSV”, the protein production entry is reported as “not failed”.

As for “MSPMSRAGTTVMRRIILMLIYCCLGTGLAGCDYTLREAAIVAPVDPPGGDPVQEPTDVKYYPSDEPVRLGLEHFNRGSYGLSQRYFKDAVEKSPKDLTAWIGLAASYDRLRRFDLADQAYAQAIRLGGETVQILNDQGYSYMLRGNLSAARRKFEKAYSLDPGNPVIANNLELLNGSRRFIERPPNNQP”, the protein production result was “failed”.

As to “MLVESFNPFNNLLLSSIVAAIPIILFLLCLTVFKMKGVYAAITTLIVTIIVAMAFFKLPGSIAGGATLEGFYQGIIPIGFIVIMAVWLYKIATKSGQFAIVQDSIASVSRDQRVQLLLIGFVFNGFLEGAAGFGVPIAICAVLLTQLGFKPLQAAMYCLVSNAAAGAYGAVGIPIAIVDTLNLPGGVTTSQVALIGNLTLGFISFVVPFLLMYIMDGFKGVKETFPATLVVAVTFTVLQVLIAAFAGPELADIIPGLVAMIALALFSKKWQPKNIFRINKDEKADAVPKHSIGHITYAWSPFIILTIVVMIWSLPAFKGLFEKGGALSALVVNFNVPGTMNAVTNKPNELTFNFFAQTGTAILITAIITIIIAKNMSFKTAGHLLGLTVKELWISVLTICFILAVSKITTYGGLSNAMGQGISKTGAAFPLLSPLLGWIGVFMTGSVVNNNSLFAPIQASVAEQIGTKGSLLVAANVAGGVTAKIVSPQSIAIATAAVNKVGKESELMKMAMRFSIGLLILVCIWTFICSLFIS”, the protein production entry was “failed”.

In the case of “MLEKVEEWIKARGLTWRLLIMQKPTRTVAEAAALLGVSESEIVKTLIVLDNAGGVYAVVIPGDKRLNINSMKELAGKPVRLARANEVVELTGYPVGGVPPVALPPNIVLVVDRILLSRKKVYGGGGRENALLEFSPRELVEATGAVVADVSE”, the protein production result is “not failed”.

Consider “MVRRLACKRAYRFRFYPTPEQEQLLRRTVGCCRKVYNLALEARSTAWTAERRSITYVQTSAMLTQWKQTAEYSYMNEVSCVPLQQALRHLQTAFSNFFKQTGDYPRFKAKSHGGSAEYTRSAFTWDAKRNELTLAKMRGPLPIRWSRTLPRKTEPSTVTVSLDAAGRWHVSILVEEAIRPLPARGDAVGIDLGVDSYAVTSDGETIANPRHYRKLAERLEREQRALSRKTKGGNNRRKAALKVARTYARITDMRRDFLHKLSTRIIRENQTVVLEDLNVRNMARRCAPKPDPDNPNHWLPNGQSAKNGLNGSIMDAGWSEFRRMLEYKAEWYGRKLITIDRYYPSTQICSHCGAKTGPKGMPGLTVRAWTCPDCGTTHDRDLNAAENILAAGLAVSVCKDGRTGTKVSH”, for which the protein production entry is reported as “failed”.
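Further: failed if final PepcDB status was selected cloned or expressed and not failed if soluble or beyond.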
